Experimental data taken from the supplement of paper PMC10567573.

B1: KRT15 (parent)
chain: SNFHINVEESVDGQVVSSHKREI
B2: TRIM39 (parent)
chain: YPCVLATEGFTSGRHYWEVEVGDK

Variants of: B1
Assay: protein stability index of a GFP-peptide fusion (GPS, HEK-293T) (PSI 1-6); higher = more stable
Conditions: c terminus: native
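Also: lentivirally expressed fusions sorted by FACS into six bins by GFP to DsRed ratio, PSI derived from sequencing read proportions per bin multiplied by bin number.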

Variant | protein stability index
SNFHINVEESVDGQVASSHKREI [V16A] | 2.19
SNFHINVEESVDGQVGSSHKREI [V16G] | 2.82
SNFHINVEESVDGQVLSSHKREI [V16L] | 2.37
SNFHINVEESVDGQVPSSHKREI [V16P] | 2.18
SNFHINVEESVDGQVMSSHKREI [V16M] | 2.23
SNFHINVEESVDGQVSSSHKREI [V16S] | 2.18
SNFHINVEESVDGQVCSSHKREI [V16C] | 2.25
SNFHINVEESVDGQVFSSHKREI [V16F] | 2.63
SNFHINVEESVDGQVVSEHKREI [S18E] | 3.06
SNFHINVEESVDGQVVSCHKREI [S18C] | 2.21
SNFHINVEESVDGQVVSRHKREI [S18R] | 3.29
SNFHINVEESVDGQVVSKHKREI [S18K] | 2.06
SNFHINVEESVDGQVVSPHKREI [S18P] | 3.1
SNFHINVEESVDGQVVSMHKREI [S18M] | 1
SNFHINVEESVDGQVVSQHKREI [S18Q] | 1.27
SNFHINVEESVDGQVVSGHKREI [S18G] | 1.54
SNFHINVEESVDGQVVSYHKREI [S18Y] | 3.37
SNFHINVEESVDGQVVSNHKREI [S18N] | 2.72
SNFHINVEESVDGQVVSTHKREI [S18T] | 1.63
SNFHINVEESVDGQVVSDHKREI [S18D] | 3.92

Variant | protein stability index
SNFHINVEESVDGQVVSIHKREI [S18I] | 2.44
SNFHINVEESVDGQVVSAHKREI [S18A] | 1.37
SNFHINVEESVDGQVVSSQKREI [H19Q] | 2.88
SNFHINVEESVDGQVVSSCKREI [H19C] | 2.22
SNFHINVEESVDGQVVSSYKREI [H19Y] | 3.48
SNFHINVEESVDGQVVSSPKREI [H19P] | 4.66
SNFHINVEESVDGQVVSSDKREI [H19D] | 5
SNFHINVEESVDGQVVSSFKREI [H19F] | 1.33
SNFHINVEESVDGQVVSSIKREI [H19I] | 2.03
SNFHINVEESVDGQVVSSKKREI [H19K] | 2.95
SNFHINVEESVDGQVVSSMKREI [H19M] | 2.39
SNFHINVEESVDGQVVSSSKREI [H19S] | 4.55
SNFHINVEESVDGQVVSSVKREI [H19V] | 3.51
SNFHINVEESVDGQVVSSEKREI [H19E] | 4.9
SNFHINVEESVDGQVVSSLKREI [H19L] | 2.08
SNFHINVEESVDGQVVSSNKREI [H19N] | 4.44
SNFHINVEESVDGQVVSSAKREI [H19A] | 2.75
SNFHINVEESVDGTVVSSHKREI [Q14T] | 2.12
SNFHINVEESVDGSVVSSHKREI [Q14S] | 1.94
SNFHINVEESVDGYVVSSHKREI [Q14Y] | 1.72

Variant | protein stability index
SNFHINVEESVDGQVVSSHKMEI [R21M] | 4.91
SNFHINVEESVDGQVVSSHKQEI [R21Q] | 4.48
SNFHINVEESVDGQVVSSHKIEI [R21I] | 3.16
SNFHINVEESVDGQVVSSHKEEI [R21E] | 5.02
SNFHINVEESVDGQVVSSHKCEI [R21C] | 4.43
SNFHINVEESVDGQVVSSHKDEI [R21D] | 4.89
SNFHINVEESVDGQVVSSHKWEI [R21W] | 3.38
SNFHINVEESVDGQVVSSHKFEI [R21F] | 4.32
SNFHINVEESVDGQVVSSHKNEI [R21N] | 3.89
SNFHINVEESVDGQVVSSHKLEI [R21L] | 4.52
SNFHINVEESVDGQVVSSHKKEI [R21K] | 4.88
SNFHINVEESVDGQVVSSHKTEI [R21T] | 4.4
SNFHINVEESVDGQVVSSHKAEI [R21A] | 4.45
SNFHINVEESVDGQVVSSHKVEI [R21V] | 3.79
SNFHINVEESVDGQVVSSHKYEI [R21Y] | 4.83
SNFHINVEESVDGQVVSSHKSEI [R21S] | 5.13
SNFHINVEESVDGQVVSSHKGEI [R21G] | 4.9
SNFHINVEESVDGQVVSSHKPEI [R21P] | 3.5
SNFHINVEESVDGQVVSSHKHEI [R21H] | 3.9

Variants of: B2
Assay: as above
Conditions: c terminus: a fixed tail appended

Variant | protein stability index
YPAVLATEGFTSGRHYWEVEVGDK [C3A] | 2.05
YPDVLATEGFTSGRHYWEVEVGDK [C3D] | 1.9
YGCVLATEGFTSGRHYWEVEVGDK [P2G] | 2.58
YECVLATEGFTSGRHYWEVEVGDK [P2E] | 2.67
YYCVLATEGFTSGRHYWEVEVGDK [P2Y] | 1.66
YDCVLATEGFTSGRHYWEVEVGDK [P2D] | 2.92
YMCVLATEGFTSGRHYWEVEVGDK [P2M] | 1.76
YRCVLATEGFTSGRHYWEVEVGDK [P2R] | 1.86
YQCVLATEGFTSGRHYWEVEVGDK [P2Q] | 2.05
YKCVLATEGFTSGRHYWEVEVGDK [P2K] | 1.99
YCCVLATEGFTSGRHYWEVEVGDK [P2C] | 1.94
YLCVLATEGFTSGRHYWEVEVGDK [P2L] | 2.35
YTCVLATEGFTSGRHYWEVEVGDK [P2T] | 2.21
YICVLATEGFTSGRHYWEVEVGDK [P2I] | 1.1
YNCVLATEGFTSGRHYWEVEVGDK [P2N] | 2.21
YFCVLATEGFTSGRHYWEVEVGDK [P2F] | 1.78
YACVLATEGFTSGRHYWEVEVGDK [P2A] | 1.84
YVCVLATEGFTSGRHYWEVEVGDK [P2V] | 2.4
YSCVLATEGFTSGRHYWEVEVGDK [P2S] | 1.52

Variant | protein stability index
APCVLATEGFTSGRHYWEVEVGDK [Y1A] | 3.11
MPCVLATEGFTSGRHYWEVEVGDK [Y1M] | 3.11
EPCVLATEGFTSGRHYWEVEVGDK [Y1E] | 3.65
FPCVLATEGFTSGRHYWEVEVGDK [Y1F] | 1.59
WPCVLATEGFTSGRHYWEVEVGDK [Y1W] | 2.74
QPCVLATEGFTSGRHYWEVEVGDK [Y1Q] | 3.71
SPCVLATEGFTSGRHYWEVEVGDK [Y1S] | 3.49
TPCVLATEGFTSGRHYWEVEVGDK [Y1T] | 3.78
IPCVLATEGFTSGRHYWEVEVGDK [Y1I] | 2.98
KPCVLATEGFTSGRHYWEVEVGDK [Y1K] | 3.15
PPCVLATEGFTSGRHYWEVEVGDK [Y1P] | 4.24
RPCVLATEGFTSGRHYWEVEVGDK [Y1R] | 3.52
LPCVLATEGFTSGRHYWEVEVGDK [Y1L] | 2.96
GPCVLATEGFTSGRHYWEVEVGDK [Y1G] | 3.34
NPCVLATEGFTSGRHYWEVEVGDK [Y1N] | 3.76
HPCVLATEGFTSGRHYWEVEVGDK [Y1H] | 3.55
DPCVLATEGFTSGRHYWEVEVGDK [Y1D] | 3.45
CPCVLATEGFTSGRHYWEVEVGDK [Y1C] | 2.7
VPCVLATEGFTSGRHYWEVEVGDK [Y1V] | 2.8
